Assay results reported in US20130344053A1, “Methods of Modifying Insulin Signaling Using Biliverdin Reductase (BVR) and BVR Derived Peptides” (University of Rochester, priority 2010, published 2013).

How the values were obtained:
[1] = system: insulin receptor substrate-1 (IRS-1) peptide Y^608
[2] = system: human epithelial kidney (HEK) cells; test: Insulin-dependent glucose uptake in HEK cells; format: cell-based; conditions: myristoylated peptide 2 h, then insulin 100 nM 10 min
Procedure: (§1) FIGS. 15A-B show the effect of hBVR-based peptides on IGF-dependent glucose uptake in rat smooth muscle cells (PAC1) (FIG. 15A) and insulin-dependent glucose uptake in human epithelial kidney (HEK) cells (FIG. 15B). Cells were treated as described for FIG. 14 and glucose uptake was measured as described infra.
(§2) The therapeutic utility of various BVR peptides with regard to their ability to modify insulin and insulin growth factor (IGF) mediated cellular glucose uptake was evaluated. Human embryonic kidney cells (HEK293) or rat aortic smooth muscle cells (PAC) were starved in low glucose serum-depleted DMEM for twenty hours prior to transfer to PBS containing CaCl2, MgCl2. After two hours, myristoylated peptides were added to the medium for two additional hours. Thereafter, IGF-1 (50 ng/ml) or insulin (100 nM) was added (10 min) and glucose uptake was tested for three minutes in the presence of methyl-D-glucose,3-O-[methyl-3H]. Subsequently, cells were washed three times in cold PBS and solubilized in NaOH (0.05 mM). Aliquots were measured for radioactivity. Non-specific binding or diffusion was tested by addition of 300 mM glucose to the cells. This value was deducted from the total counts (on the average <20%) and results were normalized for protein concentration.

[3] = system: rat smooth muscle cells (PAC1); test: Glucose uptake in PAC1 cells (IGF-dependent); format: cell-based; conditions: myristoylated peptide 2 h, then IGF-1 50 ng/ml 10 min
Procedure: Glucose uptake was tested as described infra. Cells were starved in low glucose serum-depleted DMEM for 20 hours prior to transfer to PBS containing CaCl2, MgCl2. After 2 hrs myristoylated peptides were added to the medium for 2 hours. Thereafter, IGF-1 (50 ng/ml) or insulin (100 nM) was added (10 min) and glucose uptake was tested for 3 min in the presence of methyl-D-glucose,3-O-[methyl-3H]. Subsequently cells were washed 3 times in cold PBS and solubilized in NaOH (0.05 mM). Aliquots were measured for radioactivity. Non-specific binding or diffusion were tested by addition of 300 mM glucose to the cells. This value was deducted from the total counts (on the average <20%) and results were normalized for protein concentration.
as §1, §2

[4] = system: 293A cells; test: Insulin-mediated glucose uptake (2DG) in 293A cells; format: cell-based, human; conditions: insulin 15 min, 2DG 15 min, vs controls infected with vector alone, p≦0.05
Procedure: FIG. 12A-D illustrates that “knock-down” BVR and Y^198 detection increased glucose uptake into 293A cells upon insulin induction. As shown in the graph of FIG. 12A, insulin treatment increases BVR activity. 293A cells were treated with insulin (50 nM) and subsequently used at indicated time points for BVR activity measurement. […] Purified BVR was phosphorylated by IRK for the indicated periods. Reactions were terminated by diluting with PBS and freezing at −20° C. BVR activity was determined as in FIG. 12A, and normalized to that of the control (43.8 μmol per min per mg). […] 293A cells were incubated with insulin and after 8 min or 30 min, subjected to immunoprecipitation using anti-human BVR antibodies. The phosphorylated BVR was visualized by immunoblotting using anti-tyrosine antibodies. ECL system was used for visualization of phosphorylated BVR. […]
Glucose uptake was assessed by measuring 2-deoxy 1-[^3H] glucose (2DG) absorption as described by (Braiman et al. (Mol. Endocrinol. 13:2002-12 (1999)), which is hereby incorporated by reference), with minor modifications. […] Radioactivity was measured and data was normalized to protein concentration. Non-specific uptake was determined in the presence of 200 mM of glucose and was subtracted from the total uptake. […]

[5] = system: human BVR; test: BVR autophosphorylation; format: biochemical; conditions: pH 8.4, 30 mM MnCl2, 2 h at 30° C.
Procedure: In FIG. 9A, effect of tyrosine mutations of BVR on its autophosphorylation is shown. Human wtBVR and BVR with mutations in tyrosine were used in the experiment to determine autophosphorylation of BVR. The reactions were performed as described in the Examples. FIG. 9B is a graph showing that BVR tyrosine kinase activity was checked by incubating 5 μg purified BVR with 5 μg Raytide in 50 μl kinase buffer containing 10 μM labeled ATP for 2 h at 30° C. The aliquots of the reaction were transferred onto P81 Whatman filters and radioactivity due to phosphorylation was measured using a scintillation counter.
FIGS. 10A-B illustrate that autophosphorylation of BVR is an Mn^+2 dependant kinase reaction. […] The effects of different metal ions (30 mM MnCl2, 20 mM MgCl2, 20 mM CaCl2, 20 mM Zn acetate) and their combinations were analyzed as indicated in the text. […] Phosphorylation of wtBVR by IRK in the presence of tyrosine kinase inhibitor genestein (200 μM); DMSO was used as the vehicle for genestein and was included in the control reaction mixture. The reactions were carried out in HEPES buffer (pH 8.0) in the presence of 20 mM MgCl2 as described in the Examples.
To detect autophosphorylation of BVR, GST-hBVR of wild type (wt) and mutant variants were incubated in 50 mM HEPES buffer (pH 8.4) in the presence of 30 mM MnCl2 and 1 mM DTT for 2 h at 30° C. The reaction was started with the addition of 10 μM ATP labeled with 10 μCi [γ-^32P]-ATP and was stopped with the addition of Laemmli sample buffer. Samples were boiled for 3 min and applied to a 8% SDS-PAGE gels, transferred to a PVDF membrane, and then visualized by autoradiography. […] The reaction was started with the addition of ATP and terminated by adding 120 μl 10% H3PO4. 100 μl aliquots were directly transferred to P81 Whatman filters which were subsequently washed extensively in 0.75% phosphoric acid at room temperature. Finally, the filters were submerged in acetone for 5 min, dried, and retained counts were measured using a Beckman LS 6500 liquid scintillation counter (Beckman Coulter, Fullerton, Calif.).

[6] = biological target: T1, insulin receptor kinase (IRK) (Homo sapiens, UniProt P06213); test: BVR phosphorylation by the insulin receptor tyrosine kinase (IRK); format: biochemical; conditions: tyrosine point mutant as IRK substrate, 2 h at 30° C.
T1 construct: GST-hBVR fusion protein and the 48 kDa cytoplasmic domain of the β-subunit of IRK; purchased Biomol International (Plymouth, Pa.)
Procedure: FIGS. 7A-B illustrate BVR as a substrate for insulin receptor kinase. […] 10 μg purified wtBVR was incubated in 100 μl kinase assay buffer (pH 8.0) containing 0.1 μg IRK, 10 μM ATP, and 20 μCi [^32P]-ATP at 25° C. up to 4 h. The reaction was terminated by the addition of Laemmli buffer at different points of time as indicated. Samples were separated using 8% SDS-PAGE gel and transferred onto PVDF filter, and phosphorylated protein bands were visualized by autoradiography. […] From left to right lane 1, wtBVR plus IRK in the presence of 50 mM EDTA (pH 8.0); lane 2, wtBVR plus IRK; lane 3, wtBVR in the absence of IRK. The reaction mixtures were subjected to SDS-PAGE electrophoresis and transferred onto a polyvinylidene fluoride (“PVDF”) filter. The blot was immuno-stained with anti-phosphotyrosine antibodies and ECL detection system was used to visualize phosphorylated tyrosines. […] In FIG. 8A the Y^198 residue of BVR is phosphorylated by IRK. Purified wtBVR and Y^198 mutant BVR were incubated with IRK at 30° C. for 2 h. Samples were subjected to SDS-PAGE electrophoresis and processed as described in FIG. 8B. FIG. 8B is a time course of Y^198 mutant BVR phosphorylation by IRK. A purified preparation of human BVR that carried Y^198 mutation was incubated with IRK for up to 3 h as described in FIG. 7A. Samples taken at the indicated time-points were analyzed for detection of phosphorylated proteins as above. […] Subsequently, samples were subjected to SDS-PAGE, stained with Coomassie blue and visualized bands were excised and used for measurement of radioactive content. The experiments were repeated three times. […] The indicated double mutants of BVR were used as substrates for IRK and analysis was carried out as in FIG. 8A. FIGS. 10A-B illustrate that autophosphorylation of BVR is an Mn^+2 dependant kinase reaction. […] The effects of different metal ions (30 mM MnCl2, 20 mM MgCl2, 20 mM CaCl2, 20 mM Zn acetate) and their combinations were analyzed as indicated in the text. […] The reactions were carried out in HEPES buffer (pH 8.0) in the presence of 20 mM MgCl2 as described in the Examples. Phosphorylation of BVR by IRK was examined using GST-hBVR fusion protein and the 48 kDa cytoplasmic domain of the β-subunit of IRK. BVR (5 μg) was incubated in 50 μl of IRK kinase buffer containing 50 mM HEPES (pH 8.0), 20 mM MgCl2, 1 mM DTT in the presence of 0.05 μg IRK and 10 μM ATP labeled with 10 μCi [γ-^32P]-ATP. The reaction was started with the addition of labeled ATP and incubated for 2-4 h. Reactions were terminated by addition of Laemmli sample buffer and boiled for 3 min. Samples were subjected to 8% SDS-PAGE and transferred to PVDF membranes for autoradiography.

T1 sequence (P06213 980-1382 limits assumed): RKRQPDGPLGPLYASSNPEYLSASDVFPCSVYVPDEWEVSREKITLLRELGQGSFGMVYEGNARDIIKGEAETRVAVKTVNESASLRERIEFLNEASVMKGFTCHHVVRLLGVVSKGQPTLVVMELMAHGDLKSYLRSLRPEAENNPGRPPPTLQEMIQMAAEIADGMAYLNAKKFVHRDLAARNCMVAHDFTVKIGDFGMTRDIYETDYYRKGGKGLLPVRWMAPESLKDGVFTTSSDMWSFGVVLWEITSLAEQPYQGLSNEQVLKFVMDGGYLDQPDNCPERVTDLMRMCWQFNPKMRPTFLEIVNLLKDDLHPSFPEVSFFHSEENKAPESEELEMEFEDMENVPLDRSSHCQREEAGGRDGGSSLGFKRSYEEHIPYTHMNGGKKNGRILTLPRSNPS

GST-hBVR G17 mutant (GVGRA to GVARA), ATP binding domain mutant
IRS phosphorylation by BVR (kinase assay) [1]: G^17 mutation, for the most part, prevented IRS phosphorylation by BVR

KRNRYLSF (Biliverdin reductase derived peptide) [hBVR peptide, amino acids 224-231 of BVR]
insulin mediated cellular glucose uptake in HEK cells [2]: antagonizing insulin mediated cellular glucose uptake | IGF-mediated cellular glucose uptake in PAC1 cells [3]: inhibit IGF-mediated cellular glucose uptake

siBVR: human BVR siRNA, target nt96-nt116, expressed from retroviral vector pSuper-Retro-siBVR (chain 1 UCCUCAGCGUUCCUGAACCUG; chain 2 AGGAGUCGCAAGGACUUGGAC)
insulin-mediated glucose uptake by cells [4]: significantly increased insulin-mediated glucose uptake

B1: Y^198: human BVR point mutant DQYMK to DQFMK (protein, UniProt P53004 3-296, looked up, variant Y198F)
Biliverdin reductase A: AEPERKFGVVVVGVGRAGSVRMRDLRNPHPSSAFLNLIGFVSRRELGSIDGVQQISLEDALSSQEVEVAYICSESSSHEDYIRQFLNAGKHVLVEYPMTLSLAAAQELWELAEQKGKVLHEEHVELLMEEFAFLKKEVVGKDLLKGSLLFTAGPLEEERFGFPAFSGISRLTWLVSLFGELSLVSATLEERKEDQFMKMTVCLETEKKSPLSWIEEKGPGLKRNRYLSFHFKSGSLENVPNVGVNKNIFLKDQNIFVQKLLGQFSEKELAAEKKRILHCLGLAEEIQKYCCSRK
insulin-mediated glucose uptake by cells [4]: increased significantly | autophosphorylation of BVR (mutants) [5]: did not result in significant changes in autophosphorylation of BVR | reduction of extent of BVR phosphorylation by IRK compared with wtBVR [6]: ~70%
